Values of other authors as cited in patent US20260265329A1, “POLYPEPTIDE AND DERIVATIVE THEREOF, COMPOSITION, AND USE THEREOF” (HANGZHOU SCIWIND BIOSCIENCES CO., LTD., priority 2023, published 2026).
No end group written: not given here.

Legend:
[1] = cited from earlier work
[2] = in vivo, background statement; cited from earlier work

## Amylin (KCNTATCATQRLANFLVHSSNNFGAILSSTNVGSNTY; not fully specified (C-terminus, bridges); cysteine pairing not given here; UniProt P10997 34-70, looked up) [polypeptide hormone consisting of 37 amino acids, member of the calcitonin protein family]
[1]; background statement
  fibrillation: strong tendency towards fibrillation
[1]; pH 7, background statement
  chemical stability: chemical instability at pH 7
[2]
  half-life: short half-life in vivo
